Laboratory results published in publication PMC2522368 (Molecular cell, 2008).

Legend:
[1] = target: PIPKIγ peptide (Mus musculus) (UniProt O70161); settings: cited from earlier work
talin-R6-R8 (1984-2344) = talin-R6-R8 (1984-2344) (UniProt P26039); assay: SPR
talin-RM (1654-2344) = talin-RM (1654-2344) (UniProt P26039); assay: SPR
talin-R4 (1654-1848) = talin-R4 (1654-1848) (UniProt P26039); assay: SPR
talin-H = talin-H (Mus musculus, UniProt P26039); assay: SPR, lipid immobilised on biotin chip, talin-H injected; format: binding; settings: labelled compound; 10 mM Hepes, pH 7.4, 37 °C
talin-H, sequence (P26039 1-433): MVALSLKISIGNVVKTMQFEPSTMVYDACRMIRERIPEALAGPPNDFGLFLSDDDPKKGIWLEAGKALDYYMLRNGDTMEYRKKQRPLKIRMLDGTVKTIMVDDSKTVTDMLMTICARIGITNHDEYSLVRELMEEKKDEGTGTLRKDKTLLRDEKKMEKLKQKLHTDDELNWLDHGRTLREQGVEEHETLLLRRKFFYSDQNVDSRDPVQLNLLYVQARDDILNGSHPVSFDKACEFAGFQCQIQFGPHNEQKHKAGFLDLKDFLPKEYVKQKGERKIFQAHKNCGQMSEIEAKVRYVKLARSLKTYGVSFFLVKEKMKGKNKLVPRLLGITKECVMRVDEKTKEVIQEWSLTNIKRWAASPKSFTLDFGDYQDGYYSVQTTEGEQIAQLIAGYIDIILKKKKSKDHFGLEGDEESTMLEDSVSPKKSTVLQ

talin-RM (1654-2344), sequence (P26039 1654-2344): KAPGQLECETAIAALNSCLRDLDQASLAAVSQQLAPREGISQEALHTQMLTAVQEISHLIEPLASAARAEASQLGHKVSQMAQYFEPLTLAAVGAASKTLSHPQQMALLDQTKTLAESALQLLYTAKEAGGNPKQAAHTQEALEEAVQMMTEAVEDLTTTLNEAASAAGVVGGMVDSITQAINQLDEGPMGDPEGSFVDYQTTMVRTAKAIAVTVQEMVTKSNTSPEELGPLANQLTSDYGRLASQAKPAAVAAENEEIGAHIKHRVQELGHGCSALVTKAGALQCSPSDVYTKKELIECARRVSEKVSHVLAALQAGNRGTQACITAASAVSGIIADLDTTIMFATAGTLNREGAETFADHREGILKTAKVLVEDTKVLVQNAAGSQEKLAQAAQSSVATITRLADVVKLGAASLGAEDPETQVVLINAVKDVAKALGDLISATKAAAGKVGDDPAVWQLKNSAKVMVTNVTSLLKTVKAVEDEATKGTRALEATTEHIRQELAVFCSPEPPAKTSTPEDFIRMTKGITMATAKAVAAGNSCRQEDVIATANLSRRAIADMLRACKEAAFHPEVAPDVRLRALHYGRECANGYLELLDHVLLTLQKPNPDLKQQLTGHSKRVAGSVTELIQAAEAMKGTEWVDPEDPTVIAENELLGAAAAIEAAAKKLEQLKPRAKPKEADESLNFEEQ
PIPKIγ peptide (Mus musculus), sequence (O70161 whole entry): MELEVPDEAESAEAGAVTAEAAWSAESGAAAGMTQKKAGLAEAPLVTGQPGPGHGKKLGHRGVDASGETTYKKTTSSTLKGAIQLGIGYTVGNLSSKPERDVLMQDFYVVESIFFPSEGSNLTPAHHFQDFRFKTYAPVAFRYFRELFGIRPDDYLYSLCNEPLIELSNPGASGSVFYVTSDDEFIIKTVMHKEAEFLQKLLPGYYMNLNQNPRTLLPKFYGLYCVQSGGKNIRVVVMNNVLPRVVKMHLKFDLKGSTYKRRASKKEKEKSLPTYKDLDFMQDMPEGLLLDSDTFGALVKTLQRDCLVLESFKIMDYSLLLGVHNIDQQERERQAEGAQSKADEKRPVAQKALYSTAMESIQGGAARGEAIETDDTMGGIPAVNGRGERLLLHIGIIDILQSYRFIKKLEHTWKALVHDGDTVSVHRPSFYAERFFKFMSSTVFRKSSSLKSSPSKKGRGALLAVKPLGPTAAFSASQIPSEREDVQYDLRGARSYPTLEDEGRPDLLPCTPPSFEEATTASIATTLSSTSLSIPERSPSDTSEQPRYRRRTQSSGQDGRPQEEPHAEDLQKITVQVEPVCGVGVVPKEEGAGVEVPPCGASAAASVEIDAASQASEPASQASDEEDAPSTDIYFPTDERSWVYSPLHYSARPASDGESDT
talin-PTB PTB, sequence (P26039 309-405): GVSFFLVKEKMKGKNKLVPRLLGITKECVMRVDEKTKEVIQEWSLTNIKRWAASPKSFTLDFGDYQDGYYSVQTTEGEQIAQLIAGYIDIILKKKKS
talin-R4 (1654-1848), sequence (P26039 1654-1848): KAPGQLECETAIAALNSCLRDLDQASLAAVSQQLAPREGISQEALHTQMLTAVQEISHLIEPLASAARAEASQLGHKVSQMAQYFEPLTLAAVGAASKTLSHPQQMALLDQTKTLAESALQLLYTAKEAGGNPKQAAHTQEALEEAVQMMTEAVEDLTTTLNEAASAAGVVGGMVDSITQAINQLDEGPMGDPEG
talin-R6-R8 (1984-2344), sequence (P26039 1984-2344): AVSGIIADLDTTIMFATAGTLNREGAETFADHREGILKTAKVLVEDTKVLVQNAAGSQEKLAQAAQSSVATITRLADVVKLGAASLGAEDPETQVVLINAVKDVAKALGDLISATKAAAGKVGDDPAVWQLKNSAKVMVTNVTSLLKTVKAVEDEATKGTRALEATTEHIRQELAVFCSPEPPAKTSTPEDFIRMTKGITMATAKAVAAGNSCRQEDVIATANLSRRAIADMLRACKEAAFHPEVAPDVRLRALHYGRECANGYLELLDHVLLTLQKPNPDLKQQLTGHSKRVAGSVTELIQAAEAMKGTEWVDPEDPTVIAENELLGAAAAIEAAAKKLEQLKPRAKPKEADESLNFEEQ

Row | Substance | Kd (talin-RM (1654-2344)) | also measured
1 | talin-PTB PTB (from UniProt P26039) |  | Kd [1]: 0.27 µM
2 | WT talin-PTB (talin-F3/PTB, 306-405) (from UniProt P26039 306-405) (domain or fragment) | 0.577 µM | Kd (talin-R6-R8 (1984-2344)): 78 µM; Kd (talin-R4 (1654-1848)): 3.6 µM
3 | talin-PTB Q381V (from UniProt P26039 306-405) (domain or fragment) | 314 µM | 
4 | talin-PTB S379R (from UniProt P26039 306-405) (domain or fragment) | 625 µM | 
5 | talin-PTB S365D (from UniProt P26039 306-405) (domain or fragment) | 1660 µM | 
6 | biotinylated C6-PIP2 |  | Kd (talin-H): ~0.0892 µM
7 | talin-PTB M319A (from UniProt P26039 306-405) (domain or fragment) | 80.9 µM | 
8 | talin-PTB L325R (from UniProt P26039 306-405) (domain or fragment) | 0.667 µM | 
9 | talin-PTB W359A (from UniProt P26039 306-405) (domain or fragment) | 0.529 µM | 
